From publication PMC9132891, “Antigenic structure of the human coronavirus OC43 spike reveals exposed and occluded neutralizing epitopes” (Nature Communications, 2022)

Key:
Test in all cases: ELISA; S1 antigens coated; H2L2 mAbs at one concentration, 0.4 μg/ml; OD450nm
Settings in all cases: both partners purified
[1] = molecular target: T1, S1 of bovine coronavirus (BCoV), strain Mebus (Bovine coronavirus (strain Mebus) …, UniProt P15777)
T1 construct: also called BCoV S1; source: HEK-293T, purified (Protein A sepharose)

[2] = molecular target: T2, S1 of OC43 isolate USA/1990(B) (Human coronavirus OC43, USA/1990(B) …, strain)
T2 construct: source: HEK-293T, transient, purified from culture supernatant (Protein A sepharose)
T2 chain: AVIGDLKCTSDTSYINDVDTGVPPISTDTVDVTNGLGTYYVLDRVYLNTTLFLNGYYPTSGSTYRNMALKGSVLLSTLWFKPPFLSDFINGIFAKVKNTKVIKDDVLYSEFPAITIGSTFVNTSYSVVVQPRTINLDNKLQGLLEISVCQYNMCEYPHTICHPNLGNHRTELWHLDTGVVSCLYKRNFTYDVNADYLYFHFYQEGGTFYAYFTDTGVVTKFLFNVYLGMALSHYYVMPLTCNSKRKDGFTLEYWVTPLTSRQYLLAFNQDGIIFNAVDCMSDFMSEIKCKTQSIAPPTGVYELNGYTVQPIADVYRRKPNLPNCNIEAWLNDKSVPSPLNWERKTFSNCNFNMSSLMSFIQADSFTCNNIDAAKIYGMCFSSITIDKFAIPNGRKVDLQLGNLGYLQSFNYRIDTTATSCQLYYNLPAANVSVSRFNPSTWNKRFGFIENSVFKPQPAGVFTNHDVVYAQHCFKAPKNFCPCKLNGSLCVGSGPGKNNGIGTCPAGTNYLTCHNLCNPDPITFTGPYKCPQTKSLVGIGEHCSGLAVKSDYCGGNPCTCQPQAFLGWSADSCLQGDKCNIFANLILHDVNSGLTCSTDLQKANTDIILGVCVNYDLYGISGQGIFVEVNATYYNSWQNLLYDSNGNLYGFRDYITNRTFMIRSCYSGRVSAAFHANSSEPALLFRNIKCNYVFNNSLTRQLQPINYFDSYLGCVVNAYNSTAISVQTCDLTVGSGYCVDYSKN

[3] = molecular target: T3, S1 of OC43 isolate NL/2019 (Human coronavirus OC43, NL/2019, strain)
T3 construct: source: HEK-293T, transient, purified from culture supernatant (Protein A sepharose)
T3 chain: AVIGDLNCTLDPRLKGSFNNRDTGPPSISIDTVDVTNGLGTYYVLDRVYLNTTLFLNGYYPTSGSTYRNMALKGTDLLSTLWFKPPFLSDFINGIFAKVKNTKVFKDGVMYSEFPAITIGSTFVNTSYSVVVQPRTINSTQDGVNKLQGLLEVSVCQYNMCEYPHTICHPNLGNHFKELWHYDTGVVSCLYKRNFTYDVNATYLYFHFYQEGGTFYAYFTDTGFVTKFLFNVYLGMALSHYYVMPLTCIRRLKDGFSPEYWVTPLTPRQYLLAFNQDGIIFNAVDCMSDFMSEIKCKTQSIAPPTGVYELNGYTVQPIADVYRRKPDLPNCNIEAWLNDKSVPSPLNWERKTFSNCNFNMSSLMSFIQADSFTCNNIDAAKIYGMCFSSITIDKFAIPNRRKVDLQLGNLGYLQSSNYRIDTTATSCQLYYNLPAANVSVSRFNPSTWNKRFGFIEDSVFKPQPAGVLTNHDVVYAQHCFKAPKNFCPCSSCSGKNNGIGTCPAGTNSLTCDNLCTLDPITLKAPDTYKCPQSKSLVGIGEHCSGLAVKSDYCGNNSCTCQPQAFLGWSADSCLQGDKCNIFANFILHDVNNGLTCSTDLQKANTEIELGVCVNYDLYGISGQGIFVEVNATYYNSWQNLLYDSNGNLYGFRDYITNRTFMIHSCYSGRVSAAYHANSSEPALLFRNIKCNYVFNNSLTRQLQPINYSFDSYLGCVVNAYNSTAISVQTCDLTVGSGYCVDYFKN

[4] = molecular target: T4, S1 of OC43 isolate BE/2004 (Human coronavirus OC43, BE/2004, UniProt Q4VID5, strain)
T4 construct: source: HEK-293T, transient, purified from culture supernatant (Protein A sepharose)

[5] = molecular target: T5, S1 of OC43 isolate NL/2004 (Human coronavirus OC43, NL/2004, strain)
T5 construct: source: HEK-293T, transient, purified from culture supernatant (Protein A sepharose)
T5 chain: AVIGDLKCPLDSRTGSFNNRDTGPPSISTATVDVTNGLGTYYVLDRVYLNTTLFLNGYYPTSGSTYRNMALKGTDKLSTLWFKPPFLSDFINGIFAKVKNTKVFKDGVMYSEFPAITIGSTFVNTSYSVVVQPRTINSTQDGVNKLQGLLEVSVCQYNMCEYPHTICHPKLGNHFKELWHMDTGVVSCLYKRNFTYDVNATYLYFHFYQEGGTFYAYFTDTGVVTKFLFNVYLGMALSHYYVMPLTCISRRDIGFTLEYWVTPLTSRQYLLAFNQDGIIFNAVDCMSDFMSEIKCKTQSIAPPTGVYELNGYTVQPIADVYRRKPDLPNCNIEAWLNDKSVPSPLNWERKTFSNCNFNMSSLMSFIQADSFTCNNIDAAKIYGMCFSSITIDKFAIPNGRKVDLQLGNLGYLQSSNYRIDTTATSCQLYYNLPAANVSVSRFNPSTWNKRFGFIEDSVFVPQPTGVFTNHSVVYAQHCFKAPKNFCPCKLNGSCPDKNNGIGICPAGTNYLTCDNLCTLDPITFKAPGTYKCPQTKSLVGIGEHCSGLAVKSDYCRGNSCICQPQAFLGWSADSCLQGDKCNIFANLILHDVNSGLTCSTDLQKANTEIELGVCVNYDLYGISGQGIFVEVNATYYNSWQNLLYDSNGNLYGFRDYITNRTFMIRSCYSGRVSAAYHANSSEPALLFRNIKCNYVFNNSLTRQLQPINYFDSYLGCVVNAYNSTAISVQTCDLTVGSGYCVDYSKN

[6] = molecular target: T6, S1 of OC43 isolate USA/1990(A-II) (Human coronavirus OC43, USA/1990(A-II) …, strain)
T6 construct: source: HEK-293T, transient, purified from culture supernatant (Protein A sepharose)
T6 chain: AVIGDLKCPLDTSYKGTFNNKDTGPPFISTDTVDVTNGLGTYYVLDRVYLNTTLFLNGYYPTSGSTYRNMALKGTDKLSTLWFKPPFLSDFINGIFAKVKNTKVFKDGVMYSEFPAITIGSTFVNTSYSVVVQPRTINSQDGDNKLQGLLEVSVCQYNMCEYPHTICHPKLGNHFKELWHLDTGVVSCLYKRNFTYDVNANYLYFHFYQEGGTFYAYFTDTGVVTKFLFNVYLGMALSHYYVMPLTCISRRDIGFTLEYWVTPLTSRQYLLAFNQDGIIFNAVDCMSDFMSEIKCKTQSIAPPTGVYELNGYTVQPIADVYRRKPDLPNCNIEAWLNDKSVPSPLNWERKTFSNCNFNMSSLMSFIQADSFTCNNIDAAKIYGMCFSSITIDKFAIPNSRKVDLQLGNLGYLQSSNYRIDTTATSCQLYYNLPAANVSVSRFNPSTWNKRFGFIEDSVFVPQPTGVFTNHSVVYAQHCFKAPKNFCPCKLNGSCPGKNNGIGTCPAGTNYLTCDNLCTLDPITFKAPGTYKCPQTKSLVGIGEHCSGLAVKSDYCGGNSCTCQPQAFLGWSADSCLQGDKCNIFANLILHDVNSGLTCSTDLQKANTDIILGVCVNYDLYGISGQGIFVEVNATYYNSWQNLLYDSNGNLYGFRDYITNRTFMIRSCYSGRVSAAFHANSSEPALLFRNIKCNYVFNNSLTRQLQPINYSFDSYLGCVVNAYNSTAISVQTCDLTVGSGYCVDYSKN

[7] = molecular target: T7, S1 of equine coronavirus (ECoV), strain NC99 (Equine coronavirus, strain NC99, UniProt A8R4D0, strain)
T7 construct: also called ECoV S1; source: HEK-293T, purified (Protein A sepharose)

Measured: binding result

T1 sequence (P15777 14-763): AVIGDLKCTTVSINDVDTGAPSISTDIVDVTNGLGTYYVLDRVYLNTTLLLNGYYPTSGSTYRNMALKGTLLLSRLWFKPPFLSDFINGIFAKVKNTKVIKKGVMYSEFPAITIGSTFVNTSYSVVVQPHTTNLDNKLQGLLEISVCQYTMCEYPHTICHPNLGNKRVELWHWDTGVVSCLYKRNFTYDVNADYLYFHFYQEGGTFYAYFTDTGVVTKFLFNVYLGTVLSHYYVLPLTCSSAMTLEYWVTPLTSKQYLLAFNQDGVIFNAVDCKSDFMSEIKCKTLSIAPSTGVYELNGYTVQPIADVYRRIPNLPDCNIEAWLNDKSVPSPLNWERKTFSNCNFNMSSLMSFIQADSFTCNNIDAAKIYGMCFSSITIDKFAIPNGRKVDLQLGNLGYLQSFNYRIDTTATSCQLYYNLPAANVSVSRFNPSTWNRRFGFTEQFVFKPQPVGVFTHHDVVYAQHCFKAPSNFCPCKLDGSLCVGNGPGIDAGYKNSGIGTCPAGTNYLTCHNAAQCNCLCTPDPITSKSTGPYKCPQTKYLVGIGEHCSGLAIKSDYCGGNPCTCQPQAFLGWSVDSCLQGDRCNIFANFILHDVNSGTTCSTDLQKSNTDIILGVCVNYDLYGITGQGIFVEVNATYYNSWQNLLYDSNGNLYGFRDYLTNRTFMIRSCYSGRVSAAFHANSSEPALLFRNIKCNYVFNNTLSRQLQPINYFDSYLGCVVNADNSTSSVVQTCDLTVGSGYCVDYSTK

B1: 65A11 H2L2 monoclonal antibody (antibody, V domains shown)
VH: QVQMVESGGGVVQPGRSLRLSCAASGFSFSSYGMHWVRQAPGKGLEWVAVIWSDVNYKFYADSVKGRFTISRDNSKNTLSLQMNSLRAEDTAVYYCARDSGLRYFDWDYRGYFDLWGRGTLVTVSS
VL: not shown
notes: also called 65A11 (H2L2 format)
binds: [1]

B2: 56E10 H2L2 monoclonal antibody (antibody, V domains shown)
VH: QVQLQESGPGLVKPSETLSLTCTVSGGSISGYYWSWIRQPPGKGLEWIGYIFYNGNTNYNPSLKSRVTTSLDTSKNQFSLKLISVTGADTAVYYCVRTSLYYFDYWGQGTLVTVSS
VL: DIQMTQSPSSLSASVGDRVTITCQASQDISNFLNWYQQKPGKAPKLLIYDTSSLETGVPSRFSGSGSETDFTFTISSLQPEDIATYYCQQYDNLPLTFGGGTKVEIK
notes: also called 56E10 (H2L2 format)
binds: [2] | [3] | [4] | [5] | [6]

B3: 45B9 H2L2 monoclonal antibody (antibody, V domains shown)
VH: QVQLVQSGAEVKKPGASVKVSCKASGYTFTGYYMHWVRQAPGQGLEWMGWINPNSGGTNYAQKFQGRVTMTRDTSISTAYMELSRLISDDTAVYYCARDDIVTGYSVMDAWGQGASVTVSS
VL: DIQMTQSPSSLSASVGDRVTITCRASQSISNYLNWYQQKPGKAPTLLIYAASSLQSGVPSRFSGSGSGTDFTLTISSLQPEDFATYYCQPSYSSPYTFGQGTKLEIK
notes: also called 45B9 (H2L2 format)
binds: [2] | [3] | [7] | [4] | [5] | [1] | [6]
